Assay [1] concerns the target T1, African swine fever virus major capsid protein p72 (p72 capsomer, trimer) (African swine fever virus, UniProt P22776). Nature of the assay: SPR. (In SPR one partner is held on a chip, and binding of the other changes the refractive index at the surface.)
For assay [2], the target named is T1, African swine fever virus major capsid …. Put plainly: SPR. The source holds these as a separate data set.

B1: porcine antibody F11 (class II) (Fab, V domains shown)
VH: EEKLVESGGGLVKPGGSLKLSCVGSGSTFSSDAVSWVRQAPGKGLEWLAGIDGDGYGVSTYYADSVKGRFTISRDNSQKTAYLQMNSLRTDDTARYYCAECPMVLLAKCSMEFWGPGVEVVVSS
VL: QTVIQEPAMSVSLGGTVTLTCAFSSGSVTSSNYPGWFQQTPGQPPRLLIYQTNSRPTGVPSRFSGAISGNRAALTITGAQAEDEADYFCGLWKSGTDLPFGGGTHLTVL
Regarding B1, the Kd in assay [1] was found to be 9.13 nM. For the same molecule, the off-rate (koff) in assay [2] came out at 0.000267 s⁻¹.

B2: porcine antibody F5 (class II) (antibody, V domains shown)
VH: EEKLVESGGGLVKPGGSLKLSCVGSGSTFSSDAVSWVRQAPGKGLEWLAGIDGDGYGVSTYYADSVKGRFTISRDNSQKTAYLQMNSLRTDDTARYYCAECPMVLLAKCSMEFWGPGVEVVVSS
VL: QTVIQEPAMSVSPGGTVTLTCAFSSGSVTTRNYPSWFQQTPGQPPRLLIGRTNNRPTGVPSRFSGVISGNKAALVITGAQANDEATYFCSLYSPDTIIFGSGTHLTVL
B2 returned a Kd in assay [1] of 3160 nM. Besides, in assay [2], the koff worked out at 0.0134 s⁻¹.

B3: porcine antibody G6 (class IV) (Fab, V domains shown)
VH: EVKLVESGGGLVQPGGSLTLSCVGSGYTFSSYPICWVRQAPGKGLEWLSCIDSSGSKMHLADSVLSRFTISKDNSQNTAYLQMNSLRTEDTARYYCARGRWCYGVICDMDLWGPGVEVVVSS
VL: IVLTQTPLSLSVSPGEPASISCRSSQSLEEYGKNWLSWYQQKPGQSPRLLIYQATNRASWVPERFSGSGSGTDFTLKISRVEAEDAGVYYCQQYKEFPWTFGQGTKLELK
In assay [1], B3 displayed a Kd of 1920 nM. In addition, the koff in assay [2] stood at 0.00952 s⁻¹.

B4: porcine antibody B1 (class I) (Fab, V domains shown)
VH: EVKLVESGGGLVQPGGSLKLSCVGSGSTFSSDAVSWVRQAPGKGLEWLAGIDGDGGGGSTYYADSVKGRFTISRDNSQKTAYLQMNSLRTDDTARYYCAECPMVLLAKCSMEFWGPGVEVVVS
VL: DIVLTQTPRSLSVSPGEPASISCRSSQSLEEYGKNWLSWYQQKPGQSPRLLIYQATNRASWVPERFSGSGSGTDFTLKISRVEAEDVGVYYCFQDLQPPNGFGAGTKLELK
In assay [1], B4 registered a Kd of 3.12 nM. The molecule further yielded a koff in assay [2] of 7.08e-05 s⁻¹.

B5: porcine antibody H3 (class III) (Fab, V domains shown)
VH: QEKLVESGGGLVQPGGSLILSCVGSGFTFITYEINWVRQAPGKGLEWLAVVSKIGDRTYYAHSVRGRLTISRDNSQNTAYLQMNSLRTEDTARYYCVRAWCATTCLPGDIMDLWGPGVGVIV
VL: TVIHEPAMSLSPGGTDTLTCAFSSGSITNNNYPSWFQQTPRQPPRLLIYNTNNRPTGVPSRFSGAISGNKAALTITGAQANDEADYFCTLYISIADVIFGGGTHLTVL
As to B5, in assay [1], the affinity, expressed as Kd, was 998 nM. Moreover, the koff in assay [2] is 0.00494 s⁻¹.

B6: porcine antibody C9 (class III) (Fab, V domains shown)
VH: EVKLVESGGGLVQPGGSLRLSCVGSGFTFSSYEINWVRQAPGKGLEWLAVVSKIGDRTYYADSVRGRLTISRDNSQNTAYLQMNSLRTEDTARYYCVRAWCASTCLPGDIMDLWGPGVGVVVSS
VL: QTVIQEPAMSVSPGGTVTLTCAWSSGSVTTSNYPSWFQQTPGQPPRQLIYNTNSRPTGVPRRFSGKISGNKAALTITGAQAEDEADYFCGLYKRSANNIFGGGTHLTVL
Molecule B6 returned a Kd in assay [1] of 1490 nM. In assay [2], this molecule had a koff of 0.00893 s⁻¹.

Broadly, the Kd is a measure of binding affinity in units of concentration. Low readings indicate higher affinity, high ones lower affinity. Usually koff stands for the first-order rate constant of dissociation. A high value points to a short-lived complex.

The values are drawn from article PMC11289257 (2024).
